Assay: soluble fraction after stress (log2 fold change); higher = more stays soluble; pooled small domains, quantitative proteomics
Conditions: stress: pH 4
Procedure, shortened: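 Aggregation propensity here comes from the fold change in the soluble amount of each small protein domain after acid stress, measured in pooled custom libraries by high-throughput quantitative proteomics. The acid stress was pH 4. On the log2 scale, higher values mean more of the domain stayed soluble.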

## HMLGKEVVRAYNISYAIDDKGSLQGDLTAALTGLIPLSKPPVLDQRNRSLYVTATPEQHKDVAALLAKL
  soluble fraction (log2): -0.364

## HMLGSGSKEQQLVILNNILERQVQAFNLQGGQEYPMVTLKNFYNTLSKMIENAGLKNVENYFVNPDVGKQM
  soluble fraction (log2): -0.0872

## HMLHMKAALGELMSIPGMRSELAGTLFDRGYTSLAQLRAATLDDLERVNGLERADARRIHDFLRKS
  soluble fraction (log2): -0.066

## HMLHQSLVVNAASGRVTVSLDIVPDEDNPYAVLRATDDSDEPLAQVRVAPSFKLNRASALAWIESQFARP
  soluble fraction (log2): -0.128

## HMLHSEDATVVRQAIPLLERHVDAATVAVARRNLAQLEQFGRYPRRNQALGRISNPAENAYLRAER
  soluble fraction (log2): -0.0503

## HMLIDQYPYSIIYRLIPHGRSNAVPAAQIVGLTKLDERSIRIYVEAMRREGHIIASSSKGYYFPASIEE
  soluble fraction (log2): -0.589

## HMLIGLNETESLVLDALIANPMRIDQVSAMLKKDVATTLKFLGGLSVRGLVETLFGGRFAPTKIALHARS
  soluble fraction (log2): -0.247

## HMLIIMNSDATKEQVDHVTSRVREAGFKDHIMPGAGKVAIGVTGTGDYDQTKLHLEILPGVFKIMRITK
  soluble fraction (log2): -0.0509

## HMLIPADETEAKVLSVLSREPLHVDEIRNQAGLPIEKISATLALMELKGMVRQVGGMNYVSV
  soluble fraction (log2): -0.48

## HMLKDKLSDKDFDFYKNKIQIQLQGNPTELKELVRRFSSTEEQQILKTIDYMLDNGFLRIDEDNMIYWK
  soluble fraction (log2): -1.8

## HMLKDQSIAQLEKNLDDLKGLMRKMFGSSDVPKITKMISDIESSLANFNQSKANKLIVQTTNYISSKL
  soluble fraction (log2): -0.0978

## HMLKEDSAYELGLRIFDQALNDYGTSFIDLKEDEYKKVLSIYGYSNPRQLIINIGLGNVIPHLLARDITE
  soluble fraction (log2): -1.17

## HMLKEGIKEKINQLQVYADKNDNIIWYDRVVDILSDKDDSVTDEMIEAAIRTLEEAGISVERKQ
  soluble fraction (log2): -1.04

## HMLKEGQYSPNHFHWHKMEDIINRGGGTLLIRVYNSLPDEEIDRESDVTVHMDGVTRTVPAGTQLRLE
  soluble fraction (log2): -0.345

## HMLKETGVITASVLNVREDIGTSSNIVAQLKKGMEVNILESRAIAGSETWYRIDAGSIKGWIFGDYI
  soluble fraction (log2): -2.29

## HMLKFGLSQRELQILALLPTDEPLSILAKSLFISESTLKTHLTHIYRKLGVKNRLQAINVARKAGLLK
  soluble fraction (log2): -0.502

## HMLKHSKQRDAIEQFLATRYDHPTAETVYMNLREEYPKLSLATVYRNLSLLAELGNIQKIPTGNGPDRFDG
  soluble fraction (log2): 0.22

## HMLKIAENIYQRRKEKNITQEELADFMMVTKASVSKWETGQSYPDILLLPKLATFFNVTVDELIGYEPQ
  soluble fraction (log2): -1.07

## HMLKIVRSREEVESRLYTIYGNVKGRRLYNFYLSLIIDGLDIVKARTSKNVYYTNIRNLKNAGIDFSQKIN
  soluble fraction (log2): -0.0641

## HMLKPKDLHLGDSVRVLSLNLKGTVSSLPDTKGFLFVQMGIMRSKLHISDLQLIDEPVITAP
  soluble fraction (log2): -0.314

## HMLLFSVADIVKRSKRILSFKTDAELAAYFGVSRSTLSNWIARNSIDFPLLLSKMKDVDYTWLILGKGTPG
  soluble fraction (log2): -0.207

## HMLLLHINQMGVTEFSQLELNHVRSWLANLQIKGAARSSITRRVVSVRAFTYWGAKNGWLASDIGRDLVAP
  soluble fraction (log2): -0.275

## HMLLRVGGLVKDGSVRTDNDLGIKFIIEDNLAEVSVLYNGILPDLFREGQGVIAEGKFIDNIFIANEIVA
  soluble fraction (log2): -1.13

## HMLLSHTAQREGELLTFLRGELALSSGLVKRLKWQNAFFLDGAPVHTNARVKPGQEITVRIEE
  soluble fraction (log2): -1.09

## HMLLTEETLPQLKQIVDEFPYFQIARMLYLKNLAVLNDIRFSVELKKMSIYVPDRRKLFTLIEGE
  soluble fraction (log2): -0.69

## HMLLTLPEDIITMVRQGTLSAGHARVLAGLESDEMKMTLARQTITNEWSVRQLENAVALMRKS
  soluble fraction (log2): -0.858

## HMLLTPLEETRLVIEEIVIPQKLTIDLLPRSSAIRKLQHELITHYQLRGTSVGNEPNRRLRIYP
  soluble fraction (log2): -0.633

## HMLMNADVLVKYQEDHWIVISEKASQASDTFDKKEQAVERAKEIAKNKNSSVKVYKQDGTLQDTFDYS
  soluble fraction (log2): 0.306

## HMLMSDEENAEFTKLYRQLVFKLHPDLNPNQTKDEENLWHKVQMAYKGGDLEEMRSLAIILDAQ
  soluble fraction (log2): -0.547

## HMLMTGSLQTKHGKYYVVVRIPDGLGNTKAKWINTGIPTDGNNKRKAQQRRIEILTELEENKD
  soluble fraction (log2): 0.168

— the domain aggregation screens of Martell et al. (2025)
